Reference: the nanobody polyreactivity screen of Harvey et al. (2022)

Test: yeast display, Sf9 membrane polyspecificity reagent, FACS + sequencing; frameworks hold sequencing errors
How it was run: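 Nanobodies from a synthetic yeast display library (Saccharomyces cerevisiae BJ5465), induced 36–48 hours with galactose, were stained 1 hour at 4 °C with 10% biotinylated, detergent-solubilized Sf9 membrane reagent, enriched on streptavidin microbeads, then FACS-sorted. Anti-HA (expression) and streptavidin (reagent binding) fluorescence set low and high (top ~1%) gates. Polyreactivity labels come from the gate of origin. Genes were colony-PCR amplified, MiSeq 2 × 250 sequenced and filtered by CDR length.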

Row | Sequence | polyreactivity (PSR sort gate)
1 | QVQLVESGGGLVQAGGTLRLSCAASGSTFPGYAIGSNRQAPGKERELVAAISVSGDRTYYADSVKGRFTISRDNAKNTVYLQMNSLKPEDTAVYYCAVRTRYRSYGVWVGNYSWGQGTQVTVSS | high polyreactivity
2 | QVQLVESGGGLVQAGGSLRLSCAASGLTFARNAMGWYRQAPGKERELVAAISSRGGSTYYADSVKGRFTISRDNAKNTVYLQMNSLKPEDTAVYYCATSQVLRRDRYDYWGQGTQVTVSS | high polyreactivity
3 | QVQLVESGGGLVQAGGSLRISCAASGLIFAIYAMGWYRQAPGKERELVAAIRWSGASTYADSVKGRFTISRDNAKNTVYLQMNSLKAEDTAVYYCAADDLLDYDNWGQGTQVTVSS | low polyreactivity
4 | QVQLVESGGGLVQAGGSLRLSCAASGRTFTSYAMGWYRQAPGKERELVATISWSGGSTYYADSVKGRFTISRDNAKNTVYLQMNSLKPEDTAVYYCAALKPWTTGYGDRFDYWGQGTQVTVSS | low polyreactivity
5 | QVQLVESAGGLVQAGGSLRLSCAASGSTFYPNAMGWYRQAPGKERELVAAISRGTRTKYADSVKGRFTISRDNAKNTVYLQMNSMKPEDTAVYYCAPLTYQSYWSVDGYYYWGQGTQVTVSS | high polyreactivity
6 | QVQLVESGGGLVQAGGSLRLSCAASGRIFQWNTMGWYRQAPGKEREFVAAISGSGVSTYYADSVKGRFTISRDNAKNTVYLQMNSLKPEDTAVYYCATTYPAYGRRGYDYWGQGTQVNVSS | high polyreactivity
7 | QVHLVESGGGLVQAGGSLRLSCAASGITIWNNAMGWYRQAPGKERELVATISSNGGRTYYADSVKGRFTISLDTAKNTVYFQMNSLKPEDTAVYYCNAARRAYGYNYWGQGTQVTVSS | low polyreactivity
8 | QVQLVESGGGLDQARGSLRLSCAASGLTFVEYAMGWYRQAPGKESELVADITISGGRTYYADSVKGRFTISRDNAKYTVYLQMNSLKPEDTAVYYCNAQSYLGVTHRGYIKNGYDYWGQGTQVTVSS | low polyreactivity
9 | QVQLVESGGGLVQAGGSLRLSCAASGSIFLDNAMGWYRQAPGKERELVAAISWSAGSTYYADSVKGRFTISRDNAKNTVYLQMNSLKPEDTAVYYCAAESYPGWYWDDYWGQGTQVTVSS | high polyreactivity
10 | QVQLVESGGGIDQAGGSLRLSCAASGRTFTSNAMGWYRQAPGKERELVAVIDRSGTSTYYADSVKGRFTISRDNAKNTVYLQMNSLKPEDTAVYYCAVRVRYSYTSRAKMYYWGQGTQVTVSS | high polyreactivity
11 | QDQLVESGGGLVQAGGSLRLSCAASGRTFGPYAMGWYRQAPGKEREFVAAITWRGGRTNYADSVKGRFTISRDNAKNTVYLQMNSLKPEDTAVYYCNAVISPHQWIRGGDSWGQGTQVTVSS | low polyreactivity
12 | QVQLVESGGGLVQAGGSLRLSSAASGRTFRYNAMGWYRQAPGKERELVAAISWSGTSTYYADSVKGRFTISRDNAKNTVYLQMNSLKPEDTAVYYCAARGLYDYGYWGQGTQVTVSS | high polyreactivity
13 | QVQLEESGGGLVQAGGSLRLSCAASGFIITGYTMGWYRQAPGKERELVAVISYSGGNTYYADSVKGRFTSSRDNEKNTVYLQMISVKPDYTAVYYCNKLTYKGYEYWGQGTQVNVSS | high polyreactivity
14 | QVQLVESGGGLVHAGGSLRLSCAASRFIFYYYALGWYRQAPGKERELVAVITSGGSTNYADSVKGRFTISRDNAKNTVYLQMNSLKPEDTAVYYCAARSRRRDDSWGQGTQVTVSS | high polyreactivity
15 | QVQLVESGGGLVQAGGSLRLSCAASGNTFTSYAMGWYRQAPGKERELVAAISASGSSTYYADSVKGRFTISRDNAKNTVYLQMNSLKPEDTAVYYCNAVKYRVESSYDYWGQGTQVTVSS | low polyreactivity
16 | QVQLVESGGGLVQAGGSLRLSCAASGSTFKRYAMGWYRQAPGKERELVASISRSGGSTYYADSVKGRFTISRDNAKNTVYLQMNSLKPEDTAVYYCNARNRVYYTLSGYGYWGQGTQVTVSS | high polyreactivity
17 | QGHLEESGGGLVQAGGSLRISCAASGRILPYYVMGGYRPAPGKERELVATIYWSGGSTYYADSVKGRFTISRDNAKNNVNLQINSLKPEDTAVYYSNAAPSDDYDYWGQGTQVTVSS | low polyreactivity
18 | QVQLLESGGGLVQAGGSLRLSCAASGRIFYRYAMGWYRKAPGKERELVPAISRTGSRTYYADSVKGRFTISRDNAKNTVYLQMNSLKPEDTAVYYCNKVSAPAEFRSRGYWGQGTQVTVSS | high polyreactivity
19 | QVQLVESVGGLVQAGGSLRLSCAASGLIFAYYAMGWYRQAPGKERELVAAISWTGGSTYYADSVKGRFTISRDNAKNTVYLQMNSLKPEDTAVYYCNTVGKPGFYSWGQGTQVTVSS | high polyreactivity
20 | QVQLEESGGGLVQAGGSLRLSCAASGFTISYYAMGWYRQAPGKERELVAAISSSGGSTYYADSVKGRFTISRDNAKNTVYLQMNSLKPDDTAVYYCAAGWPEYLRDGDYWGQGTQVTVSS | low polyreactivity
21 | QVQLVESGGGLVQAGGSLRLSCAASGIIFYQYAMGWYRQAPGKERELVAAINTSGGSTYADSVKGRFTISRDNAKNTVYLQMNSLKPEDTAVYYCAASYRYVRWKWGYNYWGQGTQVTVSS | high polyreactivity
22 | QVHLVESGGGLVQAGASHRLSCAASGSISKSYAMGWYRQAPGKERELVAAISWRGGSTYADSVKGRFTISRDNAKNTVYLQMNSLKPEDTAVYYCAATNYGTFWVGQSERYDYWGQGTQVNVSS | low polyreactivity

Row | Sequence | polyreactivity (PSR sort gate)
23 | QVQLVESGGGLVQAGGSLRISCAASGRIFFTYVKGWYRQAPGKERELVATIRVSGGSTYYADSVKGRYTISRDNAKKTVYLQMNSLKPEDTAVYYCAASGAWWSLHYAGDFWGQGTQVTVSS | high polyreactivity
24 | QVQLVESGGGLVQAGGSLRFSCAASGFIFRRYTMGWYRQAPGKERELVAAISITGSRTYYADSVKGRFTISRDNAKNTVYLQMNSLKPEDTAVYYCAARVWYAPKTLFGYDFDYWGQGTQVTVSS | high polyreactivity
25 | QVQLVESGGGLVQAGGSLRLSCAASGSTFQYYAMGWYRQEPGKEREFVASISGSGGSTNYADSVKGRFTISRDNAKNTVYLQMNSLKPEDTAVYYCAKEYVTEFQGYYYWGQGTQVTVSS | low polyreactivity
26 | QVQLVQSGGGLVQAGGSLRLSCAASGNIISIYVMGWYRQAPGKERELVAAITSGGSTNYADSVKGRFTISRDNAKNTVYFQMNSLKPEDTAVYYCAAERNADDESYYWGQGSQVTVSS | low polyreactivity
27 | QVQLVESGGGLVQAGGSLLLSCAAYGSTFWYNAMGWYRQAHGKESELVAAITWTGSRTYYADSVKGRFTISRDNAKNTVYLQMNSLKPEDTAVYYCNRTRSFTRYDVFYGTIPAFDYWGQGTQVTVSS | high polyreactivity
28 | QVQHVESGAGLVQAGGSLLLSCAASGRIFQKYPMGWYRQSPGKERELVAAISRGGSTYYADSVKGRFTISRDNAKNTVYLQMISLNPEDTAVYFCASTSYRRTGYNYWGQGTQVTVSS | high polyreactivity
29 | QVQLVESGGGLVQAGGSLRLSCAASGSTFVGYAMGWYRQAPGKERELVADIDSIGGSTYYADSVKGRFTISRDNAKNTVYLQMNSLKPEDTAVDYCAARRFDTALVLYDYWGQGTQVTVSS | low polyreactivity
30 | QVQLVESGGGLVQAGGSLRLSCGASGRIFRYYAMGWYRQAPGTDREVVAAITQRGGSTYADSVKGRFTISRDNAKKTVYLQMNSLKPEDTADYSCPYRGSFLYDYWGQGTQVTVSS | low polyreactivity
31 | QVQLVESGGGLVQAGGSLRLSCAASGSIFYRNTMGWYRQAPGKERELVAAITRGTRTYYADSGKGRFTISRDNAKNTVYLQMNSLKPEDTAVYYCNARFVGRTGGSFDYWGQGTQVTVSS | high polyreactivity
32 | QVQLEESGGGLVQAGGSLRLSCAASGLTFVRYAMGWYRQAPGKERELVAAISSGGSTNYADSVKGRVTISRDNAKNTVYLQMNSLKPEDTAVYYCAARPPRTYWRYQSDYWGQGTQVTVSS | high polyreactivity
33 | QVQLVESGGGLVQAGGSLRLSCAASGSTFTLYAMGWYRQAPGNERELVASITASDGSTSYADSVKGRFTISRDNAKNTVYLQMNSLKPEDTAVYYCAARYRVRGISYYYWGQGTQVTVSS | low polyreactivity
34 | QVQLVESGGGLVQAGGRLRLSCAASGFIFDTKAMGWYRKAPGKERELGARISSSAGSTYYADSVKGLFTISRDNAKNTVYLQMNSLKPEDTAVYYCNRTYRLPVYKVDYWGQGTQVTVSS | low polyreactivity
35 | QVQLVESGGGLVQAGGSLRLSCAASGRIFARYTMGWYRQAPGKERELVATITGRGGRTYADSVKGRFTISRDNAKNTVYLQMNSLKPEVTAVYYCNAGGRTASRRYYWGQGSQVTVSS | low polyreactivity
36 | QVQLVESGGGLVQAGGSLRLSCAASGRTFVYNAMGWYRQAPGKERELVAGITGSGDSTYYADSVKGRFTISRDNAKNTVYLQMNSLKPEDTAVYYCNQLVEEDYWGQGTQVTVSS | low polyreactivity
37 | QVQLVESGGGLVQAGGSLRLSCAASGSIFQPYAMGWYRQAPGKERELVAAITNGGSTYYADSVKGRFTISRDNAKNTVYLQMNSLKPEDTAVYYCATDVLLYFEPVNLDYWGQGTQVTVSS | low polyreactivity
38 | QVQLVESAGGLVQAGGSLRLSCAASGRIFRYYAMGWYRQAPGKERELFAAISRSGASTYYADSVKGRFTISRDNAKNTVYLQMNSLIPEDTAVYYCAAGYWPGYSQTYRGGYWGQCTQVTVSS | high polyreactivity
39 | PVQLVESGGGLVQAGGSLRLSCAASGRTFYAFDMGWSRQAPGKERELVSRITSGGSTDYADSVKGRFTSSRDNAKNTVYLQMNSLKPEDTAVYYCAAETSYAVSTGDHFDYWGQGTQVTVSS | high polyreactivity
40 | QVQLVESGGGLVQAGGSLRLSCAASGSTFGSYAMGWYRQAPGKERELVAAITQIGGSTYYADSVKGRFTISRDNAKNTVYLQMNSLKPEDTEVYYCAVTAGRGGYPQGGVTRGYWGQGTQVTVSS | high polyreactivity
41 | QVQLVESGGGLVQAGGSLRLSCAASGFTFSFYAMGWYRQAPGKERELVAAITNGGSTYYADSVKGRFTISRDNAKNTVYLQMNSLKPEDTAVYYCAAEWDYPWWRIVAVYGYEYWGQGTQVTVSS | low polyreactivity
42 | QVQLVESGGGLVQAGGSLRVSCAASGSIFSYYDMGWYRPAPGKERELVAAITDGGDRTYYADSVKGRFTISRDNAKNTVYLQMNSLKPEHTAVYYCAAVVSVNMYWGQGTQVTVSS | low polyreactivity
43 | QVQLVESGGGLVQAGGSLRLSCAASGRTFYTYARGWYRQAPGKERELVAAITKRGGSTYYADSVKGRFTISRDYAKNTVYLQMNSLKPEDTAVYYCNQELATARGQSLYRTYSGYGYWGQGTQVTVSS | high polyreactivity
